Legend:
Experiment in all cases: holdup assay
Parameters in all cases: key: below the threshold = too weak to quantify, mostly under pKd 3.1 to 4
[1] = target: T1, SHANK1, Q9Y566
T1 sequence (Q9Y566 658-767, limits assumed, looked up): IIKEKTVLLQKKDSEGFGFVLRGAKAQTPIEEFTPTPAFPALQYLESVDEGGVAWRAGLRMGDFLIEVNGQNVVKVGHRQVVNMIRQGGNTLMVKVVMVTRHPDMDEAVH

[2] = target: GRASP, Q7Z6J2
[3] = target: MAGI2_4, Q86UL8
[4] = target: LAP2, Q96RT1
[5] = target: GRID2IP_1, A4D2P6
[6] = target: T2, RAPGEF6, Q8TEU7
T2 sequence (Q8TEU7 525-625, limits assumed, looked up): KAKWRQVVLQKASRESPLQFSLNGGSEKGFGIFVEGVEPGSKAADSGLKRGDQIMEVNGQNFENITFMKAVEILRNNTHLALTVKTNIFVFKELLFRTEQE

[7] = target: GOPC, Q9HD26
[8] = target: AHNAK1, Q09666
Sequence of AHNAK1, Q09666 (Q09666 4-100): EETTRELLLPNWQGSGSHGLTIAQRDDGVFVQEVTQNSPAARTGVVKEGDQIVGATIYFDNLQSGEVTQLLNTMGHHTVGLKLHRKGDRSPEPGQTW

[9] = target: IL16_1, Q14005
Sequence of IL16_1, Q14005 (Q14005 210-306): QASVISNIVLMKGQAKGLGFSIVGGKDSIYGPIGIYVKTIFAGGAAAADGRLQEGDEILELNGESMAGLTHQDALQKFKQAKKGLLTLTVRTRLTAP

[10] = target: T3, APBA1_1, Q02410
T3 sequence (Q02410 651-752, limits assumed, looked up): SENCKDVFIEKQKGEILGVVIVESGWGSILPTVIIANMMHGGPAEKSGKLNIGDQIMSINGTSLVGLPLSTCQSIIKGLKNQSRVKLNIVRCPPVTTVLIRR

[11] = target: MAGI3_2, Q5TCQ9
Sequence of MAGI3_2, Q5TCQ9 (Q5TCQ9 398-503): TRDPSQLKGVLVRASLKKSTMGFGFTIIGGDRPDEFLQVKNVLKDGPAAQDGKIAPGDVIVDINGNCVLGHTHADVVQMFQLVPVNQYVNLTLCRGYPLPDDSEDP

[12] = target: T4, APBA2_1, Q99767
T4 sequence (Q99767 563-664, limits assumed, looked up): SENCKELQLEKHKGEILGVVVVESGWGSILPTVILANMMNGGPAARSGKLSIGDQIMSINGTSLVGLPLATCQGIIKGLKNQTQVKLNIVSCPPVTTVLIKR

[13] = target: T5, MPDZ_10, O75970
T5 sequence (O75970 1624-1722, limits assumed, looked up): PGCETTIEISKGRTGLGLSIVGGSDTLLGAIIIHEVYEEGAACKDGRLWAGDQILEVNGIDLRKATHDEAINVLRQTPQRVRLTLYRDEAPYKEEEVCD

[14] = target: T6, RADIL, Q96JH8
T6 sequence (Q96JH8 971-1071, limits assumed, looked up): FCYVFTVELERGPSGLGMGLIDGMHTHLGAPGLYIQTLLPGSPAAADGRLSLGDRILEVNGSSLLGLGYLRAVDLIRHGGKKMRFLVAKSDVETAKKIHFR

[15] = target: T7, ARHGAP21, Q5T5U3
T7 sequence (Q5T5U3 45-169, limits assumed, looked up): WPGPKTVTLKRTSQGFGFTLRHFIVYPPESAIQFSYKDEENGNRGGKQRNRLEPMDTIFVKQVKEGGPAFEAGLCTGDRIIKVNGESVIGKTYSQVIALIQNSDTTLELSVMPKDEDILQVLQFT

[16] = target: SCRIB_1, Q14160
Sequence of SCRIB_1, Q14160 (Q14160 718-814): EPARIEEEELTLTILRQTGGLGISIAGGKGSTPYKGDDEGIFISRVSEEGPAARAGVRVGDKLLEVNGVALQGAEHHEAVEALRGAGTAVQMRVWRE

[17] = target: Inadl_9, Q8NI35
Sequence of Inadl_9, Q8NI35 (Q8NI35 1530-1615): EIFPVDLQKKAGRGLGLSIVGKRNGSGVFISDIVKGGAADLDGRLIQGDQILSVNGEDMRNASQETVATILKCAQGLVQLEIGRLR

[18] = target: T8, PARD3B_1, Q8TEW8
T8 sequence (Q8TEW8 196-299, limits assumed, looked up): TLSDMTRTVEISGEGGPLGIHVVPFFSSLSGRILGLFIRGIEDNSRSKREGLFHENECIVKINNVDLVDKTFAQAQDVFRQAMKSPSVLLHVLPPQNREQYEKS

[19] = target: T9, MPDZ_5, O75970
T9 sequence (O75970 695-796, limits assumed, looked up): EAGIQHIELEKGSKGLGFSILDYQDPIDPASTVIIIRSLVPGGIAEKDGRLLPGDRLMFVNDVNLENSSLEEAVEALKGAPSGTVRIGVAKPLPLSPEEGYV

[20] = target: LNX1_1, Q8TBB1
Sequence of LNX1_1, Q8TBB1 (Q8TBB1 261-371): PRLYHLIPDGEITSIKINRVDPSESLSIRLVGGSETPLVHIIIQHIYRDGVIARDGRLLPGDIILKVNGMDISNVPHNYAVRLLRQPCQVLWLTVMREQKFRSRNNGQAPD

[21] = target: NHERF4_1, Q86UT5-2
Sequence of NHERF4_1, Q86UT5-2 (Q86UT5 other isoform, or with tags, fused parts or gaps): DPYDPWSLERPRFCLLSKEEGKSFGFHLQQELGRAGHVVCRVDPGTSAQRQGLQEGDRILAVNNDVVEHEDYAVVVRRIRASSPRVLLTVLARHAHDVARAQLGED

[22] = target: FRMPD2_2, Q68DX3
Sequence of FRMPD2_2, Q68DX3 (Q68DX3 944-1038): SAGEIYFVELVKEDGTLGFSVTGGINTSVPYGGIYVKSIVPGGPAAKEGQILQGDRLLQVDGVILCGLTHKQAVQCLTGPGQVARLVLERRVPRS

[23] = target: DLG1_3, Q12959
Sequence of DLG1_3, Q12959 (Q12959 457-571): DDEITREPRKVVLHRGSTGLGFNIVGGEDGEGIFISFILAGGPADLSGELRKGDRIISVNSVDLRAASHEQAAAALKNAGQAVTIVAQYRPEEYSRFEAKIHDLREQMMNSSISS

[24] = target: NHERF4_2, Q86UT5
Sequence of NHERF4_2, Q86UT5 (Q86UT5 220-308): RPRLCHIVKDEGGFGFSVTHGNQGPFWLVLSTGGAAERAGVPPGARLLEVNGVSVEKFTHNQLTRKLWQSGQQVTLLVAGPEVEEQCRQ

[25] = target: DLG5_1, Q8TDM6
Sequence of DLG5_1, Q8TDM6 (Q8TDM6 617-713): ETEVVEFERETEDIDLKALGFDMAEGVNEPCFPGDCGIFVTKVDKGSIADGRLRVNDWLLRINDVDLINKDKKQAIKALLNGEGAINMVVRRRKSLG

[26] = target: T10, MPDZ_12, O75970
T10 sequence (O75970 1857-1958, limits assumed, looked up): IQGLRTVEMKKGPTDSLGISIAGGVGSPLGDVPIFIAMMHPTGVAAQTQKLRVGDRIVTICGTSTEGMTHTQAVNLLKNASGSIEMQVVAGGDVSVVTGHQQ

[27] = plain residues with an end cap or a label only (N-terminal biotin on a linker: ttds)
[28] = plain residues with an end cap or a label only (N-terminal biotin on a linker: ahx)

Sequence of GRASP, Q7Z6J2 (Q7Z6J2 96-193): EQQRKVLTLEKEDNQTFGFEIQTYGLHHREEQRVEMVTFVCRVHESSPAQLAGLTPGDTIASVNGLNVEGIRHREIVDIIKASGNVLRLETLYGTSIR
Sequence of MAGI2_4, Q86UL8 (Q86UL8 772-865): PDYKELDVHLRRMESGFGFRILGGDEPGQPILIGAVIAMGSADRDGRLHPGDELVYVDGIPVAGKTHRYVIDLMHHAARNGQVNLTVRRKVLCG
Sequence of LAP2, Q96RT1 (Q96RT1 other isoform, or with tags, fused parts or gaps): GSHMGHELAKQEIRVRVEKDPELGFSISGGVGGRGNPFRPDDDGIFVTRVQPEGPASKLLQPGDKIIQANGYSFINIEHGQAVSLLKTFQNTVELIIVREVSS
Sequence of GRID2IP_1, A4D2P6 (A4D2P6 1-87): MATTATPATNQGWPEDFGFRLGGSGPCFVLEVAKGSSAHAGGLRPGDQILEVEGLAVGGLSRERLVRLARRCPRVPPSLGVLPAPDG

In the case of SSLQSLETSV [ATP2B4, P23634], the pKd [1, 27] is reported as 3.94, the pKd [2, 27] is reported as 3.6 and the pKd [3, 27] is reported as 4.19. The pKd [4, 27] was 4.66, the pKd [5, 27] was “below the threshold” and the pKd [6, 27] was 3.72. For the same binder, the pKd [7, 27] was “below the threshold”, the pKd [8, 27] was “below the threshold” and the pKd [9, 27] was 4.7. The pKd [10, 27] was “below the threshold”, the pKd [11, 27] was 4.79 and the pKd [12, 27] was “below the threshold”. For the same binder, the pKd [13, 27] was “below the threshold”, the pKd [14, 27] was 3.69 and the pKd [15, 27] was “below the threshold”. The pKd [16, 27] was 5.03, the pKd [17, 27] was “below the threshold” and the pKd [18, 27] was “below the threshold”. For the same binder, the pKd [19, 27] was 3.58, the pKd [20, 27] was 3.71 and the pKd [21, 27] was “below the threshold”. For the same binder, the pKd [22, 27] was 4.64, the pKd [23, 27] was 4.86 and the pKd [24, 27] was “below the threshold”. For the same binder, the pKd [25, 27] was “below the threshold” and the pKd [26, 27] was 3.53.

For EVVHTPETSV [SLC16A3, O15427], the pKd [1, 27] was “below the threshold”, the pKd [2, 27] was “below the threshold” and the pKd [3, 27] was 3.55. For the same binder, the pKd [4, 27] was 3.81, the pKd [5, 27] was “below the threshold” and the pKd [6, 27] was “below the threshold”. The pKd [7, 27] was “below the threshold”, the pKd [8, 27] was “below the threshold” and the pKd [9, 27] was 3.6. For the same binder, the pKd [10, 27] was “below the threshold”, the pKd [11, 27] was 4.33 and the pKd [12, 27] was “below the threshold”. The pKd [13, 27] was “below the threshold”, the pKd [14, 27] was “below the threshold” and the pKd [15, 27] was “below the threshold”. The pKd [16, 27] was 5.08, the pKd [17, 27] was “below the threshold” and the pKd [18, 27] was “below the threshold”. The pKd [19, 27] was “below the threshold”, the pKd [20, 27] was “below the threshold” and the pKd [21, 27] was 4.19. The pKd [22, 27] was 4.5, the pKd [23, 27] was 4.1 and the pKd [24, 27] was “below the threshold”. For the same binder, the pKd [25, 27] was “below the threshold” and the pKd [26, 27] was “below the threshold”.

RLPKIKETTV [FRMPD4, Q14CM0] was tested, and the pKd [1, 27] was “below the threshold”, the pKd [2, 27] was 3.47 and the pKd [3, 27] was 4.24. For the same binder, the pKd [4, 27] was 3.87, the pKd [5, 27] was “below the threshold” and the pKd [6, 27] was “below the threshold”. For the same binder, the pKd [7, 27] was 3.83, the pKd [8, 27] was “below the threshold” and the pKd [9, 27] was 4.07. The pKd [10, 27] was “below the threshold”, the pKd [11, 27] was 5.27 and the pKd [12, 27] was “below the threshold”. The pKd [13, 27] was “below the threshold”, the pKd [14, 27] was “below the threshold” and the pKd [15, 27] was “below the threshold”. For the same binder, the pKd [16, 27] was 4.95, the pKd [17, 27] was 3.48 and the pKd [18, 27] was 3.45. The pKd [19, 27] was “below the threshold”, the pKd [20, 27] was “below the threshold” and the pKd [21, 27] was “below the threshold”. For the same binder, the pKd [22, 27] was “below the threshold”, the pKd [23, 27] was 5.3 and the pKd [24, 27] was “below the threshold”. For the same binder, the pKd [25, 27] was “below the threshold” and the pKd [26, 27] was “below the threshold”.

With GYDWGPATDL [TJP3, O95049] the pKd [1, 28] was 4.39, the pKd [2, 28] was 4.14 and the pKd [3, 28] was 3.49. For the same binder, the pKd [4, 28] was 3.73, the pKd [5, 28] was “below the threshold” and the pKd [6, 28] was “below the threshold”. For the same binder, the pKd [7, 28] was 3.93, the pKd [8, 28] was “below the threshold” and the pKd [9, 28] was “below the threshold”. The pKd [10, 28] was “below the threshold”, the pKd [11, 28] was “below the threshold” and the pKd [12, 28] was “below the threshold”. For the same binder, the pKd [13, 28] was “below the threshold”, the pKd [14, 28] was “below the threshold” and the pKd [15, 28] was “below the threshold”. For the same binder, the pKd [16, 28] was 3.76, the pKd [17, 28] was 3.6 and the pKd [18, 28] was 3.65. The pKd [19, 28] was “below the threshold”, the pKd [20, 28] was 4.84 and the pKd [21, 28] was 3.72. The pKd [22, 28] was 3.54, the pKd [23, 28] was “below the threshold” and the pKd [24, 28] was “below the threshold”. The pKd [25, 28] was “below the threshold” and the pKd [26, 28] was “below the threshold”.

For RHTTSTETAV [HPV30-E6, P36809], the pKd [1, 27] was 3.73, the pKd [2, 27] was 3.96 and the pKd [3, 27] was 4.07. The pKd [4, 27] was 4.46, the pKd [5, 27] was “below the threshold” and the pKd [6, 27] was “below the threshold”. It also gave a pKd [7, 27] of 4.14, a pKd [8, 27] of 3.72 and a pKd [9, 27] of 4.08. For the same binder, the pKd [10, 27] was “below the threshold”, the pKd [11, 27] was 5.36 and the pKd [12, 27] was “below the threshold”. The pKd [13, 27] was “below the threshold”, the pKd [14, 27] was “below the threshold” and the pKd [15, 27] was “below the threshold”. The pKd [16, 27] was 4.76, the pKd [17, 27] was “below the threshold” and the pKd [18, 27] was “below the threshold”. The pKd [19, 27] was “below the threshold”, the pKd [20, 27] was “below the threshold” and the pKd [21, 27] was “below the threshold”. For the same binder, the pKd [22, 27] was 4.23, the pKd [23, 27] was 4.39 and the pKd [24, 27] was “below the threshold”. The pKd [25, 27] was “below the threshold” and the pKd [26, 27] was “below the threshold”.

KKYVDAETSL [SLC4A7, Q9Y6M7] was tested, and the pKd [1, 27] was 4.67, the pKd [2, 27] was 3.73 and the pKd [3, 27] was “below the threshold”. The pKd [4, 27] was “below the threshold”, the pKd [5, 27] was “below the threshold” and the pKd [6, 27] was “below the threshold”. For the same binder, the pKd [7, 27] was 4.09, the pKd [8, 27] was “below the threshold” and the pKd [9, 27] was “below the threshold”. For the same binder, the pKd [10, 27] was “below the threshold”, the pKd [11, 27] was “below the threshold” and the pKd [12, 27] was “below the threshold”. The pKd [13, 27] was “below the threshold”, the pKd [14, 27] was “below the threshold” and the pKd [15, 27] was “below the threshold”. For the same binder, the pKd [16, 27] was 5.54, the pKd [17, 27] was “below the threshold” and the pKd [18, 27] was 3.65. The pKd [19, 27] was “below the threshold”, the pKd [20, 27] was “below the threshold” and the pKd [21, 27] was 3.49. The pKd [22, 27] was “below the threshold”, the pKd [23, 27] was 3.75 and the pKd [24, 27] was “below the threshold”. The pKd [25, 27] was “below the threshold” and the pKd [26, 27] was “below the threshold”.

Source: publication PMC9482650, “Quantitative fragmentomics allow affinity mapping of interactomes” (Nature Communications, 2022)
